Experimental data published in patent US20250288643A1 (FBD BIOLOGICS, published 2025).
Where two headings read alike, the source gives them in different places.

T1: mouse CD47 (mouse, UniProt Q61735 19-140, limits assumed)
T1 sequence (looked up): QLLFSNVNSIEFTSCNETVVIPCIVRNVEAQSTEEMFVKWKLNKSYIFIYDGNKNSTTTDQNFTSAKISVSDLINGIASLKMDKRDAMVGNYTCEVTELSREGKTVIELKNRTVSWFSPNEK


What was measured:
human CD47 (hCD47) [1] = target: T2, human CD47 (hCD47) (human, UniProt Q08722 19-139, limits assumed); test: hCD47 binding OD over expression OD
Procedure: (§1) 30 μl of the collected supernatant was added to the ELISA plates and incubated at 25° C. for 1 hour. After the incubation, goat anti-c-Myc HRP with a dilution ratio of 1:10000 was added to the plate, and TMB was added for color development. The absorbance value at 450 nm was measured using a Varioskan™ LUX plate reader.

human CD47 (hCD47) [2] = target: T2, human CD47 (hCD47); test: ELISA, coated hCD47 ECD Fc, supernatant, anti-c-Myc HRP
Procedure: as §1

mouse CD47 = target: T1, mouse CD47; test: ELISA, coated mouse CD47 ECD Fc, supernatant, anti-c-Myc HRP
Procedure: 100 μl of the collected supernatant was added to the ELISA plates and incubated at 25° C. for 1 hour. After the incubation, goat anti-c-Myc HRP with a dilution ratio of 1:10000 was added to the plate, and TMB was added for color development. The absorbance value at 450 nm was measured using a Varioskan™ LUX plate reader.

human CD47 (hCD47) [3] = target: T2, human CD47 (hCD47); test: blocking ELISA, coated hCD47 ECD Fc, supernatant + biotin-SIRPα ECD His
Procedure: (§2) 150 μl of the collected supernatant and 20 μl biotin-labeled SIRPα ECD His protein (final concentration: 2.5 μg/ml) were added to the ELISA plates and incubated at 25° C. for 1 hour. After the incubation, avidin HRP (BioLegend, Cat #: 79004) with a dilution ratio of 1:1000 was added to the plate, and TMB was added for color development. The absorbance value at 450 nm was measured using a Varioskan™ LUX plate reader.

human CD47 (hCD47) [4] = target: T2, human CD47 (hCD47); test: hCD47 binding OD over expression OD; remark: listed apart in the source
Procedure: as §1

human CD47 (hCD47) [5] = target: T2, human CD47 (hCD47); test: ELISA, coated hCD47 ECD Fc, supernatant, anti-c-Myc HRP; remark: listed apart in the source
Procedure: as §1

human CD47 (hCD47) [6] = target: T2, human CD47 (hCD47); test: blocking ELISA, coated hCD47 ECD Fc, supernatant + biotin-SIRPα ECD His; remark: listed apart in the source
Procedure: as §2

T2 sequence (Q08722 19-139 limits assumed): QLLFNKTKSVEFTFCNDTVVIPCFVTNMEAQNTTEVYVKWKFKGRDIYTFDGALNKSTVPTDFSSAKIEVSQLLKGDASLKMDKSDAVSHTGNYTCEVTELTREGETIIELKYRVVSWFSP

Binder | hCD47 binding (B/E) (human CD47 (hCD47) [1]) | hCD47 binding (OD) (human CD47 (hCD47) [2]) | mCD47 binding (OD) (mouse CD47) | Blocking (OD) (human CD47 (hCD47) [3]) | Blocking ability (%) (human CD47 (hCD47) [3]) | hCD47 binding (B/E) (human CD47 (hCD47) [4]) | hCD47 binding (OD) (human CD47 (hCD47) [5]) | Blocking (OD) (human CD47 (hCD47) [6]) | Blocking ability (%) (human CD47 (hCD47) [6])
4RP13-3-11A (designed binder, tested as bacterial supernatant; also called S-2; hSIRPα-mt3 (IgV domain)) hSIRPα IgV domain mutant: EEELQVIQPDKSVSVAAGESAILHCTVTSLWPVGPIQWFRGAGPARELIYNQKAWPFPRVTTVSESTKRENMDFSISISNITPADAGTYYCVKFRKGSPDTEFKSGAGTELSVRAKPS | 1.53 | 1.67 OD | 0.348 OD | 0.319 OD | 93.3% |  |  |  | 
4RP13-1-7A (designed binder, tested as bacterial supernatant; also called S-19; hSIRPα-mt8 (IgV domain)) hSIRPα IgV domain mutant: EEELQVIQPDKSVSVAAGESAILHCTVTSLKPVGPIQWFRGAGPARELIYNQKRDTFPRVTTVSESTKRENRDFSISISNITPADAGTYYCVKFRKGSPDTEFKSGAGTELSVRAKPS | 2.44 | 1.9 OD | 0.293 OD | 0.215 OD | 95.8% |  |  |  | 
4RP13-4-5C (designed binder, tested as bacterial supernatant; also called S-21; hSIRPα-mt5 (IgV domain)) hSIRPα IgV domain mutant: EEELQVIQPDKSVSVAAGESAILNCTVTSLIPVGPIQWFRGAGPARELIYNQKHQTFPRVTTVSEQTKRENRDFSISISNITPADAGTYYCVKFRKGSPDTEFKSGAGTELSVRAKPS | 1.65 | 1.86 OD |  | 0.21 OD | 96.3% |  |  |  | 
2R-1-7B (designed binder, tested as bacterial supernatant; also called hSIRPα-mt7 (IgV domain)) hSIRPα IgV domain mutant: EEELQVIQPDKSVSVAAGESAILHCIVTSLIPVGPIQWFRGAGPARELIYNQKILTFPRVTTVSESTKRENYDFSISISNITPADAGTYYCVKFRKGSPDTEFKSGAGTELSVRAKPS |  |  |  |  |  | 0.78 | 0.687 OD | 1.43 OD | 23.3%
2R-1-4B (designed binder, tested as bacterial supernatant; also called hSIRPα-mt14 (IgV domain)) hSIRPα IgV domain mutant: EEELQVIQPDKSVSVAAGESAILHCTVTSLAPVGPIQWFRGAGPARELIYNQKLDSFPRVTTVSESTKRESMDFSISISNITPADAGTYYCVKFRKGSPDTEFKSGAGTELSVRAKPS |  |  |  |  |  | 0.77 | 0.946 OD | 1.36 OD | 27.9%
2RP-1-3E (designed binder, tested as bacterial supernatant; also called S-7; hSIRPα-mt9 (IgV domain)) hSIRPα IgV domain mutant: EEELQVIQPDKSVSVAAGESAILTCTVTSLWPVGPIQWFRGAGPARELIYNQKGQNFPRVTTVSESTKRFNMDFSISISNITPADAGTYYCVKFRKGSPDTEFKSGAGTELSVRAKPS | 1.61 | 1.72 OD |  | 0.131 OD | 99.9% |  |  |  | 
4RP13-5-6G (designed binder, tested as bacterial supernatant; also called hSIRPα-mt15 (IgV domain)) hSIRPα IgV domain mutant: EEELQVIQPDKSVSVAAGESAILRCTVTSLTPVGPIQWFRGAGPARELIYNQKAKQFPRVTTVSESTKRENMIFSISISNITPADAGTYYCVKFRKGSPDTEFKSGAGTELSVRAKPS |  |  |  |  |  | 1.01 | 1.65 OD | 1.11 OD | 46.3%
4RP13-3-4D (designed binder, tested as bacterial supernatant; also called S-11; hSIRPα-mt11 (IgV domain)) hSIRPα IgV domain mutant: EEELQVIQPDKSVSVAAGESAILHCTVTSLLPVGPIQWFRGAGPARELIYNQKSKVFPRVTTVSESTKRRNMDFSISISNITPADAGTYYCVKFRKGSPDTEFKSGAGTELSVRAKPS | 1.7 | 1.79 OD |  | 0.229 OD | 99.8% |  |  |  | 
4RP13-1-2G (designed binder, tested as bacterial supernatant; also called S-5; hSIRPα-mt4 (IgV domain)) hSIRPα IgV domain mutant: EEELQVIQPDKSVSVAAGESAILRCTVTSLWPVGPIQWFRGAGPARELIYNQKAFIFPRVTTVSESTKRGNMDFSISISNITPADAGTYYCVKFRKGSPDTEFKSGAGTELSVRAKPS | 2.27 | 1.94 OD | 0.412 OD | 0.194 OD | 96.9% |  |  |  | 
2R-1-10B (designed binder, tested as bacterial supernatant; also called hSIRPα-mt6 (IgV domain)) hSIRPα IgV domain mutant: EEELQVIQPDKSVSVAAGESAILHCTVTSLIPVGPIQWFRGAGPARELIYNQKNLIFPRVTTVSESGKRENMDFSISISNITPADAGTYYCVKFRKGSPDTEFKSGAGTELSVRAKPS |  |  |  |  |  | 0.46 | 0.51 OD | 1.37 OD | 27.2%
4RP6-1-10A (designed binder, tested as bacterial supernatant; also called S-16; hSIRPα-mt13 (IgV domain)) hSIRPα IgV domain mutant: EEELQVIQPDKSVSVAAGESAILHCTVTSLLPVGPIQWFRGAGPARELIYNQKDFLFPRVTTVSESTKRENRDFSISISNITPADAGTYYCVKFRKGSPDTEFKSGAGTELSVRAKPS | 2.89 | 1.87 OD | 0.41 OD | 0.45 OD | 80.1% | 2.89 | 1.87 OD | 0.45 OD | 80.1%
4RP13-3-7B (designed binder, tested as bacterial supernatant; also called S-28; hSIRPα-mt10 (IgV domain)) hSIRPα IgV domain mutant: EEELQVIQPDKSVSVAAGESAILTCTVTSLYPVGPIQWFRGAGPARELIYNQKRQTFPRVTTVSESTKRFNMDFSISISNITPADAGTYYCVKFRKGSPDTEFKSGAGTELSVRAKPS | 1.25 | 1.49 OD |  | 0.332 OD | 92.4% | 1.25 | 1.49 OD | 0.332 OD | 92.4%
4RP13-3-10B (designed binder, tested as bacterial supernatant; also called S-26; hSIRPα-mt12 (IgV domain)) hSIRPα IgV domain mutant: EEELQVIQPDKSVSVAAGESAILHCTVTSLYPVGPIQWFRGAGPARELIYNQKGRRFPRVTTVSESTKRANMDFSISISNITPADAGTYYCVKFRKGSPDTEFKSGAGTELSVRAKPS | 1.33 | 1.65 OD |  | 0.299 OD | 94.7% |  |  |  | 
